Measured values published in the Immune Epitope Database (IEDB).

Key:
HLA-B*07:02 [1] = test: IEDB peptide-MHC binding, purified MHC/direct/fluorescence; filed as Kd, often an IC50 or EC50 that approximates it; ≥ and ≤ were set here for values at or beyond the usual limits of such assays; conditions: source organism: Mammarenavirus juninense
HLA-C*03:03 = test: as above
HLA-B*57:01 [2] = test: IEDB peptide-MHC binding, purified MHC/competitive/radioactivity; filed as Kd, often an IC50 or EC50 that approximates it; ≥ and ≤ were set here for values at or beyond the usual limits of such assays
HLA-B*58:01 [3] = test: as above
HLA-A*11:01 = test: IEDB peptide-MHC binding, purified MHC/competitive/fluorescence; ≥ and ≤ were set here for values at or beyond the usual limits of such assays
HLA-B*35:01 [4] = test: IEDB peptide-MHC binding, purified MHC/competitive/fluorescence; filed as Kd, often an IC50 or EC50 that approximates it; ≥ and ≤ were set here for values at or beyond the usual limits of such assays
HLA-B*15:01 [5] = test: IEDB peptide-MHC binding, purified MHC/direct/fluorescence; filed as Kd, often an IC50 or EC50 that approximates it; ≥ and ≤ were set here for values at or beyond the usual limits of such assays; conditions: source organism: Mycobacterium tuberculosis C
HLA-C*12:03 = test: as above
HLA-A*30:01 = test: IEDB peptide-MHC binding, purified MHC/competitive/radioactivity; filed as Kd, often an IC50 or EC50 that approximates it; ≥ and ≤ were set here for values at or beyond the usual limits of such assays; conditions: source organism: Dengue virus 4 Philippines/H241/1956
HLA-B*46:01 = test: IEDB peptide-MHC binding, purified MHC/competitive/fluorescence; filed as Kd, often an IC50 or EC50 that approximates it; ≥ and ≤ were set here for values at or beyond the usual limits of such assays; conditions: source organism: Giardia lamblia ATCC 50803
HLA-B*15:17 = test: IEDB peptide-MHC binding, purified MHC/direct/fluorescence; filed as Kd, often an IC50 or EC50 that approximates it; ≥ and ≤ were set here for values at or beyond the usual limits of such assays; conditions: source organism: Giardia lamblia ATCC 50803
HLA-B*57:01 [6] = test: as above; conditions: source organism: Giardia lamblia ATCC 50803
HLA-B*58:01 [7] = test: as above; conditions: source organism: Giardia lamblia ATCC 50803
HLA-A*01:01 = test: IEDB peptide-MHC binding, purified MHC/competitive/fluorescence; filed as Kd, often an IC50 or EC50 that approximates it; ≥ and ≤ were set here for values at or beyond the usual limits of such assays
HLA-A*03:01 = test: as above; conditions: source organism: Escherichia coli
HLA-B*15:01 [8] = test: as above; conditions: source organism: Escherichia coli
HLA-B*07:02 [9] = test: IEDB peptide-MHC binding, purified MHC/competitive/radioactivity; filed as Kd, often an IC50 or EC50 that approximates it; ≥ and ≤ were set here for values at or beyond the usual limits of such assays
HLA-B*53:01 = test: as above
HLA-B*35:01 [10] = test: as above
HLA-B*54:01 = test: as above
HLA-B*51:01 = test: as above
HLA-B*40:01 = test: IEDB peptide-MHC binding, purified MHC/direct/fluorescence; filed as Kd, often an IC50 or EC50 that approximates it; ≥ and ≤ were set here for values at or beyond the usual limits of such assays; conditions: source organism: Francisella tularensis subsp. holarctica LVS
HLA-B*18:01 = test: as above; conditions: source organism: Francisella tularensis subsp. holarctica LVS
[11] = source organism: Dengue virus 1 Singapore/S275/1990
[12] = source organism: Dengue virus 2 Peru/IQT2913/1996
[13] = source organism: Dengue virus 4 Philippines/H241/1956
[14] = source organism: Giardia lamblia ATCC 50803
[15] = source organism: Dengue virus 1 Brazil/97-11/1997
[16] = source organism: Vaccinia virus WR
[17] = source organism: Dengue virus 3 Martinique/1243/1999
[18] = source organism: Lymphocytic choriomeningitis virus (strain Armstrong)

AAVKAGASI
Kd (HLA-B*07:02 [1]): 2060 nM
Kd (HLA-C*03:03; source organism: Mammarenavirus machupoense): ≤ 1 nM

ASSVLLWMAS
Kd (HLA-B*57:01 [2]; [11]): 15100 nM
Kd (HLA-B*58:01 [3]; [11]): 690 nM

ATLEDDRER
IC50 (HLA-A*11:01; source organism: Variola virus): 49400 nM

DRSDGYFLK
IC50 (HLA-A*11:01; source organism: Vaccinia virus Copenhagen): 31800 nM

EQFWCGIPY
Kd (HLA-B*35:01 [4]; source organism: Mycobacterium tuberculosis C): 0.2 nM
Kd (HLA-B*15:01 [5]): 78.8 nM

ESWEEIPYLG
Kd (HLA-B*57:01 [2]; [12]): 78.3 nM
Kd (HLA-B*58:01 [3]; [12]): 90.3 nM

FIFPASKVY
Kd (HLA-C*12:03; source organism: Homo sapiens): ≤ 1 nM

GASKRSWPLN
Kd (HLA-B*57:01 [2]; [13]): 106 nM
Kd (HLA-A*30:01): 257 nM
Kd (HLA-B*58:01 [3]; [13]): 763 nM

IASPILFPF
Kd (HLA-B*46:01): 92.3 nM
Kd (HLA-B*15:17): 1.5 nM
Kd (HLA-C*12:03; [14]): 594 nM
Kd (HLA-B*57:01 [6]): 14.8 nM
Kd (HLA-C*03:03; [14]): 3 nM
Kd (HLA-B*58:01 [7]): 3 nM

ITDITKYLY
Kd (HLA-A*01:01; source organism: Bacillus cereus G9241): 2.1 nM

ITDYIVGYY
Kd (HLA-A*03:01): ≥ 20000 nM
Kd (HLA-B*15:01 [8]): 2400 nM
Kd (HLA-A*01:01; source organism: Escherichia coli): 3 nM

KASQEGPLPE
Kd (HLA-B*57:01 [2]; [15]): 894 nM
Kd (HLA-B*58:01 [3]; [15]): 669 nM

KPYTAGNKV
Kd (HLA-B*07:02 [9]; [16]): 36.6 nM
Kd (HLA-B*53:01; [16]): ≥ 78200 nM
Kd (HLA-B*35:01 [10]; [16]): ≥ 77400 nM
Kd (HLA-B*54:01; [16]): 29.5 nM
Kd (HLA-B*51:01; [16]): 10.3 nM

LPFYETLPEL
Kd (HLA-B*07:02 [9]; [16]): 79.8 nM
Kd (HLA-B*53:01; [16]): 57 nM
Kd (HLA-B*35:01 [10]; [16]): 63.1 nM
Kd (HLA-B*54:01; [16]): 29.7 nM
Kd (HLA-B*51:01; [16]): 55.1 nM

LSDICSGLQ
Kd (HLA-A*01:01; source organism: Escherichia coli O139:H28 str. E24377A): ≥ 20000 nM

MEVGNTVAF
Kd (HLA-B*35:01 [4]; source organism: Francisella tularensis subsp. tularensis FSC198): 558 nM
Kd (HLA-B*40:01): 1.6 nM
Kd (HLA-B*18:01): ≤ 1 nM

MGITAEWLW
Kd (HLA-B*53:01; [17]): 6.6 nM
Kd (HLA-B*57:01 [2]; [17]): 8.74 nM
Kd (HLA-B*58:01 [3]; [17]): 0.436 nM

MPSEDGAEAL
Kd (HLA-B*07:02 [9]; [18]): 1360 nM
Kd (HLA-B*53:01; [18]): 1730 nM
Kd (HLA-B*35:01 [10]; [18]): 68.1 nM
Kd (HLA-B*54:01; [18]): 2850 nM
Kd (HLA-B*51:01; [18]): ≥ 21500 nM

NPTKYIRWKL
Kd (HLA-B*07:02 [9]; [16]): 27 nM
Kd (HLA-B*53:01; [16]): 2020 nM
Kd (HLA-B*35:01 [10]; [16]): 15000 nM
Kd (HLA-B*54:01; [16]): 5880 nM
Kd (HLA-B*51:01; [16]): ≥ 59400 nM
